Results: US20230049152A1 (Genentech, published 2023)
Residue numbers refer to the chain shown, from its start. Each block holds one binder with its values, some of them ahead of it.

What was measured:
S23A = biological target: T1, S23A; assay: flow cytometry, HEK293 transfected with hCCR8 S23A with C-terminal FLAG; sheet prints [huCCR8]=0.02 ug/ml
T1 construct: single alanine mutant of hCCR8; also called hCCR8 S23A
T1 receptor chain: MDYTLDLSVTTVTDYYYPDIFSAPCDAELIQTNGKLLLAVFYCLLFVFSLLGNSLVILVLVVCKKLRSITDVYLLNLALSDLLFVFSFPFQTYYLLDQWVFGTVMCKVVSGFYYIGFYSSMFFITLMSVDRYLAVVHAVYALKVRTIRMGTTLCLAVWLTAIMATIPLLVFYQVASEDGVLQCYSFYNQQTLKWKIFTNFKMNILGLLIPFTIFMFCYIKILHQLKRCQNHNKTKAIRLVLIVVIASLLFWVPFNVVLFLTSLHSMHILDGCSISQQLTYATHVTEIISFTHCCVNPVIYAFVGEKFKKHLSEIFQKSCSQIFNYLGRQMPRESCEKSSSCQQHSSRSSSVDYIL
Method: (§1) FIGS. 16A-16B depict the epitope maps for hu.Ab5.H13L1 (FIG. 16A) and hu.Ab4.H12L3 (FIG. 16B) mAbs.
(§2) To epitope map fucosylated hu.Ab5.H13L1, the binding to alanine point mutations in human CCR8 was analyzed by flow cytometry.

V9A = biological target: T2, V9A; assay: flow cytometry, HEK293 transfected with hCCR8 V9A with C-terminal FLAG; sheet prints [huCCR8]=0.02 ug/ml
T2 construct: single alanine mutant of hCCR8; also called hCCR8 V9A
T2 receptor chain: T1 receptor chain with V9A, A23S

P24A = biological target: T3, P24A; assay: flow cytometry, HEK293 transfected with hCCR8 P24A with C-terminal FLAG; sheet prints [huCCR8]=0.02 ug/ml
T3 construct: single alanine mutant of hCCR8; also called hCCR8 P24A
T3 receptor chain: T1 receptor chain with A23S, P24A

hCCR8 D6A = biological target: T4, hCCR8 D6A (human, UniProt P51685 1-355); assay: flow cytometry, HEK293 transfected with hCCR8 D6A with C-terminal FLAG
T4 construct: alanine point mutant on transfected HEK 293 cells

T11A = biological target: T5, T11A; assay: flow cytometry, HEK293 transfected with hCCR8 T11A with C-terminal FLAG; sheet prints [huCCR8]=0.02 ug/ml
T5 construct: single alanine mutant of hCCR8; also called hCCR8 T11A
T5 receptor chain: T1 receptor chain with T11A, A23S
Method: as §1, §2

human CCR8 = human CCR8 (human, UniProt P51685 1-355); assay: cell-based or functional assay

binding result (S23A): binds
binding result (V9A): binds
binding result (P24A): binds
binding result (hCCR8 D6A): no binding (tested: 0.02 ug/ml)
binding result (T11A): binds
B1: hu.Ab5.H13L1 (antibody, human IgG1, kappa)
heavy: not shown
light: DIQVTQSPSSLSASVGDRVTITCQASENIANALAWYQQKPGKPPKFLIYGASNLASGVPSRFSGSGSGTDFTFTISSLQPEDIATYYCQQAYYGNSFVEGTFGGGTKVEIKRTVAAPSVFIFPPSDEQLKSGTASVVCLLNNFYPREAKVQWKVDNALQSGNSQESVTEQDSKDSTYSLSSTLTLSKADYEKHKVYACEVTHQGLSSPVTKSFNRGEC
notes: fucosylated human IgG1; also called Ab5 variant

ADCP EC50, macrophages HR/FF (FIG. 14A) (human CCR8): 0.35 nM
ADCP EC50, macrophages RR/FF (FIG. 14B) (human CCR8): 0.81 nM
ADCP EC50, macrophages RR/VF (FIG. 14D) (human CCR8): 0.41 nM
B2: hu.Ab4.H12L3 (antibody, human IgG1, kappa)
heavy: not shown
light: DYQMTQSPSSLSASVGDRVTITCQASQSISSYLSWYQQKPGKAPKLLIYKASTLASGVPSRFSGSGSGTDFTLTISSLQPEDFATYYCQQGYTSSNIDNIFGGGTKVEIKRTVAAPSVFIFPPSDEQLKSGTASVVCLLNNFYPREAKVQWKVDNALQSGNSQESVTEQDSKDSTYSLSSTLTLSKADYEKHKVYACEVTHQGLSSPVTKSFNRGEC
notes: fucosylated human IgG1; also called huCCR8-Ab4.H12L3.hIgG1; Ab4 variant
